Test: yeast display, Sf9 membrane polyspecificity reagent, FACS + sequencing; frameworks hold sequencing errors
Outline: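 Genes from sorted yeast were amplified by colony PCR, read by MiSeq 2 × 250 sequencing and filtered on CDR length. These cells carried a synthetic nanobody library in Saccharomyces cerevisiae BJ5465 and were sorted by FACS into low and high (top ~1%) gates on anti-HA and streptavidin fluorescence. Polyreactivity is labelled according to the gate of origin.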

Sequence | polyreactivity (PSR sort gate)
QVQLEESGGGLVQAGGSLRLSCAASGYIFQSYAMGWYRQAPGTERELVAAISRGGSTYYADSVKGRFTISRDNAMNSVYLQMNSLKPEDTAVYYCNTLTVGGFRRYYYWGQGSQVTVSS | high polyreactivity
QVQLVESGGGLVQAGGSLRLSCAASGIIFVYYVMGWYRQAPGKERELVASIDGSGGSTNYADSVKGRFTISRDNAKNTVYLQMNSLKPEDTAVYYCNADNILYWSTLDYWGQGTQVTVSS | low polyreactivity
QVQLVESGGGLVQAGGSLRLSCAASGRTFRRYAMGWYRQAPGKERELVAVITRGGNTNYADSVKGRFTISRDNAKNTVYLQMNSLKPEDTAVYYCAAELYNYGYDYWGQGTQVTVSS | low polyreactivity
QVQLVDSGGALVQAGGSLSLSCAASGGKYDSYAMGWYRQAPGKERELVASISRSGSTNYADSVKGRFTISRDNAMNTVYLQMNSLNPEDTAVYYCAASVRGIRYDYWGQGTQVTVSS | low polyreactivity
QVQLVESGGGLVQAGGSLRLSCAASGFIFYYYAMGWYRQAPGKERELVAAISSGDDTTYADSVKGRFTISRDNAKNTVYLKMNSLKPEDTAVYYCNSERSVKQQGPYGYWGQGTQVTVSS | low polyreactivity
QVQIVESGGGLVQAGGSLRLSCAASGSISVANAMGWYRQAPGKERELVAAITDSGDDTYYADSVKGRFTISRDNAKNTVYFQMNSLKPEDTELYYCAVEAWSVPPYDYWGQGTQVTVSS | low polyreactivity
QVQLVESGGGLVQAGGSLRISCAASGFIFNIYAMGWYRQAPGKERELVASITSGGNTNYADSVKGRFTISRDNAKNTVYLQMNSLKPEDTAVYYCAAETSSSRGYDYWGQGTQVTVSS | low polyreactivity
QVQLVESGGGLVKAGGSLGLSCAASGSIFGVNAMGWYRQAPGKERELVAAISKRGGTTYYADSVKGRFTISRDNAKNTVYVQRHSLKPEDTAVYYCNAPYLWNYYGGRYDYWGQGTQVTVSS | high polyreactivity
QVQLVESGGGLVQAGGSLRLSCAASGFTFWYYAMGWYRQAPGKEREMVAAISRSGTSTYYADSVKGRFTISRDNAKNTVYLQMNSLKPEDSAVYYCNVLRVKSITYLMDYWGQGTQVTVSS | high polyreactivity
QDQLVESVGGLDQAGVSLRLSCAASGFIFRAYAMGWYRQAPGKERELVAAITKRSGTTYYADSVKGRFTISRDNAKNTVYLQMNSLKPEDTAVYYCAAKTLYNSGTQDRAMGYWGQGTQVTVSS | high polyreactivity
QVQLVESGGGLVQAGGSLRLSCAASGSSFRYTMGWYRQAHGKQRELVATITYSDGSTYYADSVKGRFTISRDNAKNTVYFQMNSLKPEDTAVYYCARTTPTGRQYRRYDYWGQGSQVTVSS | low polyreactivity
QVQHVESGGGLVQAGGSLRLSCAASGLTFSSYAMGWYRQAPGKERELVAAISLSGGRTYYADSVKGRFTISRDNAKNTVYLQMNSLKPEDTAVYYCAADPYANWCPYPAWYYGAYNYWGQGTQVTVSS | high polyreactivity
QVQLVESGGGLVQAGGSLRLSCAASGSTFATYAMGWYRQAPGKERELVAVISRSGGSTYYADSVKGRFTISRDNAKNTVYLQMNSLKPEDTAVYYCNVPITPGRVKYDYWGQGTQVTVSS | high polyreactivity
QVQLVESGGGLDQAAGSLRLTCAASGTTFEYYAMGLYRQAPAKEREFVAAITGSGASTYYADSVKGRFTISRDNAKNTVYLQMNSLKPEDTAVYYCIALSALAVEDGYWGQGTQVTVSS | low polyreactivity
QVQLVESGGGLVQAGGSLRLSCAASGRTFRLYAMGWYRQAPGKERELDAAIRTDDSTNYADSVKGRFTISRDNAKNTVYLQMNSLKPEDTAVYYCNAEGQFTWLGRRRHKFEYWGQGTQVTVSS | low polyreactivity
QVQLVESGGGLVQAGGRLRLSCAASGIIFYVYTMGWSRQAPGKERELVAAISGSGGSTTYADSVKGRFTISRDNAKNTVYLQMNSLKPEDTAVYYCNAKKWFYRWWKFSEFDYWGQGTQVTVSS | high polyreactivity
QVQLVESGGGLVQAGGSLRLSCAASGSTFRRYVMGGYREAAGKERELVAAISGSSGSTYYADSVKGRFTISRDNAKNTVYLQMNSLKPEDTAVYYCAAVRATQGYRYGYWGQGTQVTVSS | high polyreactivity
QVQLVESGGGLVQAGGSLRLSCAASGSTFRFYALGWSRQAPGKERELVAAINGSGGSTYYADSVKGRFTISRDNAKNTVYLQMNSLKPEDTAVYYCAATYYILYTSWDEYWGQGTQVTVSS | low polyreactivity
QVQLVESGGCLVQAGGSLRLSCAASGYTFVHYDMGWYRQAPGKEREFVAAISGATYYADSVTGRFTISRDNAKNTVYLQMNSLKLEDTAVYYCNAYAYVESPSDMDYWGQGTQVTVSS | low polyreactivity
QVQLVESGGGLVQAGGSLRLSCAASGRTFATYAMGWYRQAPGKERELVAAITSGGSTNYADSVKGRFTISRDNAKNTVYLQMNSLKPEDTAVYYCNAYKTNRGSGPWYTGRYDYWGQGTQVTVSS | low polyreactivity
QVQLVESGGGLVQAGGSLRLSCAASGIIFRFYSMGWYRQAPGKERELLAVITSRSDSTYYADSVKGRFTISRDNAKNTVYLQMNSLKPEDTAVYYCNARYPWYYRYSTYDYWGQGTQVTVSS | high polyreactivity
QVQLVESGGGLVQAGGSLRLSCAASGRTFYYYARGWYRQAPGKERELVAAISSRGGSTYYADSVKGRFTISRDNAKNTVYLQMNSLKPEDTAVYYCAAERYFVLYRYYSYAYYYWGQGTQVTVSS | high polyreactivity

Sequence | polyreactivity (PSR sort gate)
QVQLVESGGGLVQAGGSLRLICAASGSTFTTYAMGWYRQAPGKEREFVAGISWSGGSTRYADSVKGRFTISRDNAKNTVYLQMNSLKPEDTAVYYCAAGRKRDSKYYYWGQGTQVTVSS | high polyreactivity
QVQLVESGGGLVQAGGSLRLSCAASGIIFESYSMGWYRQAPGKERELVAAISWDGGSTYYADSVKGRFTISRDNAKNTVYLQMNSLKPEDTAVYYCAAESYGIYDGYDYWGQGTQVTVSS | high polyreactivity
QVQLVESGGGLVQAGGSLRLSCAASGRISFYYARGWSIQAPGKERELVAAISRGGSTYYADSVKGRFTISRDNAKNTVYLQMNSLKPEDTAVYYCAATYSVVDTPSGYDYWGQGTLVTVSS | low polyreactivity
QVQLVESGGGLVQAGGSLRLSCAASGRIFGNYAMGWYRQAPGKERELVAAISGGGSTYYADSVKGRFTISRDNAKNTVYLQMKSLKPEDTAVYYCAARFLWSVFGRKGGYWGQGTQVTVSS | low polyreactivity
QVQLVESGGGLVQAGGSLRLSCAASGSIFDVYAMGWYRQAPGKERELVAAITWRGGSTYYADSVKGRFTISRDNAKNTVYLQMNSLKPEDTAVYYCAAVYQSRLWDRYYYWGQGTQVTVSS | high polyreactivity
QVQLVESGGGLVQAGGSLRLSCAASGSTFTYNAMGWYRQAPGKERELVAVIRPGGNTNDADSVKGRFTISRDNAKNTVYLQMNSLKPEDTAVYYCAKYFGNYSIYDYWGQGTQVTVSS | low polyreactivity
QVHLVESGGGLVQAGGSLRLSCAASGSIFSVYTRGWYRQAPGKERELVAAISTGGGSTYYADSVKGRFTISRDNAKNTVYLQMNSLKPEDTAVYYCATDYGWAPSYWYDSCGQGTQVTVSS | low polyreactivity
QVQLVESGGGLVQAGGSLRLSCAASGSIFPYNAMGWYRQAPGKERELVAAISRSGGSTYYADSVKGRFTISRDNAKNTVYLQMNSLKPEDTAVYYCAAYSLYWRDDYWGQGTQVTVSS | high polyreactivity
QVQLVESGGGLVQAGGSLRLSCAASGLTFWWYAMGWYRQAPGKERELVAAISSSGGSTYYADSVKGRFTISRDNAKNTVYLQMNSLKPEDTAVYYCAVASWDNYWDPYGYWGQGTQVTVSS | low polyreactivity
QVQLVESGGGLVQAGGSLRLSCAASGRIFGYYAMGWYIQAPGKERELVAGIDWSGGNTYYADSVKGRFTISRDNAKNTVYLQMNSLKPEDTAVYYCNTEGGRDTAWYDYWGQGTQVTVSS | low polyreactivity
QVQHEKSRGALVQAGGSLRLSCAASGSTVEKYTMGWYREAPGKVRELVAAISKSGGSTYYADSVKGRFTISRDNAMNTVYLQMNSLNPEDTAVDYCAALQYPRAGFDYWGQGTQVTVSS | high polyreactivity
QVQLVESGGGLVQAGGSLRLSCAASGSIFSSYAMGWYRQAPGKERALVAGISRRGGSTYYADSVKGRFTISRDNAKNTVYLQMNSLKPEDTAVYYCNARSAGSDLDYWGQGTQVTVSS | high polyreactivity
QVQLVESGGGLVQAGGSLRLSCAASGIIQPRYAMGWYRQAPGKERELVAAISRGGGTYYADSVKGRFTISRDNAKNTVYLQMNSLIPEYSAVYNCASAYVFVGSSHYYWGQGTQVTVSS | high polyreactivity
QVQLVESGGGLVQAGGSLRLSCADSGLTFYRYAMGWYRQAPGKERELVAAIRVSGNTYYADSVKGRFTISRDNAKNTVYLQMNSLKPEDTAVYYCAAKPYYFYGMDYWGQGTQVTVSS | high polyreactivity
QVQHVESRGGLVQAGGSLRLSCAASGSTIISNAQGWYRLAPGKERELVASIRSSGSTNYADSVKGRFTISRDNAKNTVYLKMNSLKPEDTAVYYCAAGSYWVQFQYDYWGQGTQVTVSS | low polyreactivity
QVQLVESGGGLVQAGGSLRLSCAASGRIVGWYAMGWYRQAPGKERELVAGINYGGGRTYYADSVKGRFTISRDNAKNTVYLQMNSLKPEDTAVYYCAAGISGHYYWGQGTQVTVSS | high polyreactivity
QVQLVESGGGLFHAGGSLRLSCSASGLTFDINAMGWYRQEPGKERELVAAISRSGGRTYYADSVKGRFTISRDNAKNTVFLQMNSLKPEDTAVYYCADRFIYGYDYWGQGTQVTVSS | high polyreactivity
QVQLVESGGGLVQAGGSLRLSCAASGFTFYYYAMGWYRQAPGKERELVARITSGGSTYYADSVKGRFTISRDNAKNTVYLQMISLKPEDTAVYYCNVDVSVEVAYWGQGTQVTVSS | low polyreactivity
QVQLVESGGGLVQAGGSLRLSCAPSGSTFRVYGMGWYRQAPGKETELVAVIRWRGGRTSYADSVKGRFTISRDNAKNTVYLQMNSLKPEDTAVYYCAAAYWNDWSQYDYWGQGTQVTVSS | high polyreactivity
QVQLVESGGGLVQAGGSLRLSCAASGRISRLYAMGWYRPAPGKERELVAAITDSGGSTYYADSVKGRFTISRDTAKNTVYLQMNSLKPEDTAVYYCAATWSNWYREYYYWGQGTQVTVSS | high polyreactivity
QVQLVESGGGLVQAGGSLRLSCAASGGTFYYYAMGWYRQAPGKERELVAAITGTGGRTYYADSVKGRFTISRDNAKNTVYLQMNSLKPEDTAVYYCAKYPAARAVDYWGQGTQVTVSS | high polyreactivity
